Laboratory results from US20230265201A1 (published 2023).
Changes are numbered by the printed parent chain.

How the values were obtained:
[1] = biological target: T1, recombinant human CD70 (Flag-TNC-CD70) (human, UniProt P32970 39-193); assay: blocking ELISA of Example 19: CD27 Fc chimera on anti-Flag-captured Flag-TNC-CD70
T1 construct: extracellular domain; also called recombinant CD70; human Flag-TNC-CD70; not shown: Flag tag and TNC trimerisation domain
T1 sequence (looked up): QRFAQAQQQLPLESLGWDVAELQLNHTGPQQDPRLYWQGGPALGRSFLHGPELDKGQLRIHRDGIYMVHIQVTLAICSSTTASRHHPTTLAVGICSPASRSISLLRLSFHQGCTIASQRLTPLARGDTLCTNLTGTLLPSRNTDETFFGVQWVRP

[2] = biological target: T2, rhesus recombinant CD70 (FLAG-TNC-rhesus CD70) (rhesus macaque (Macaca mulatta)) (UniProt F7GPA5); assay: CD27-CD70 inhibition ELISA, rhesus Flag-TNC-CD70
T2 sequence: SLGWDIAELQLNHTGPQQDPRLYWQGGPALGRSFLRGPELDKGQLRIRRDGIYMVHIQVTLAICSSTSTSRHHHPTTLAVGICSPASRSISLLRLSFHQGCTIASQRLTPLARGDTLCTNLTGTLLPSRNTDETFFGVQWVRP

[3] = biological target: cynomolgus monkey Flag-TNC-CD70 (cynomolgus monkey); assay: CD27-CD70 inhibition ELISA, cynomolgus Flag-TNC-CD70
[4] = biological target: T1, recombinant human CD70 (Flag-TNC-CD70); assay: inhibition ELISA: CD27-Fc binding to anti-Flag-captured Flag-TNC-CD70
Method: From selected phage transfected into TG1, individual colonies were picked randomly for growth in 96 well plates. After IPTG induction according to standard protocols periplasmic fractions (peris) containing Fabs were prepared. […] In this assay, Flag-TNC-CD70 is captured by an anti-Flag mAb and binding of CD27-Fc is detected via a biotinylated anti-CD27 mAb and strep-HRP in the absence or presence of CD70 Fabs (FIGS. 2 and 3) or CD70 mAbs (FIG. 4). In FIG. 2B it can be seen that 27B3, which has an identical VH as 9D1, but contains a somewhat different light chain, seems to block binding of CD27 to CD70 more efficiently, which was in line with the better off rate of this Fab as measured on Biacore (data not shown). Table 3 indicates the blocking potency (expressed as IC50) for the various llama-human chimeric mAbs tested in the CD70 inhibition ELISA. […] FIG. 3 is a composite of an experiment testing llama CD70 Fabs for blocking activity (in the inhibition ELISA, see white bars) and for CD70 binding (binding ELISA, black bars). For the binding ELISA, Flag-TNC-CD70 is captured by an anti-Flag mAb and binding of the Fabs is detected using an anti-myc-HRP mAb, which recognizes the MYC tag fused to the C-terminus of the Fd fragment. […]

[5] = biological target: T1, recombinant human CD70 (Flag-TNC-CD70); assay: CD27-CD70 inhibition ELISA, human Flag-TNC-CD70
[6] = biological target: T3, human CD70 on the surface of cells (human, UniProt P32970 1-193); assay: cell-based or functional assay
T3 sequence (looked up): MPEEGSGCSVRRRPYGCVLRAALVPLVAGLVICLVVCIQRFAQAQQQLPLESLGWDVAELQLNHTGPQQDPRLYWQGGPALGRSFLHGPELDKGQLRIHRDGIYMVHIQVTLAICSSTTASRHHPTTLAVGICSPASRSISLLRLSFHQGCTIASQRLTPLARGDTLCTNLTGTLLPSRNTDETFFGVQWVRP

[7] = biological target: T4, rhesus recombinant CD70 (FLAG-TNC-rhesus CD70) (rhesus macaque (Macaca mulatta), UniProt F7GPA5 174-316); assay: Biacore off-rate, Fab over immobilised rhesus CD70
T4 construct: also called rhesus Flag-TNC-CD70; Rhesus monkey; not shown: Flag tag and TNC trimerisation domain
T4 sequence: T2 sequence

[8] = biological target: T4, rhesus recombinant CD70 …; assay: CD27-CD70 inhibition ELISA, rhesus Flag-TNC-CD70
Method: In this assay, a microtiter plate (Nunc Maxisorb) was first coated with 100 µl anti-FLAG M2 monoclonal antibody (Sigma Aldrich, F3165) at 1250-fold dilution in PBS (to achieve a final concentration of approximately 3.5 µg/ml) overnight at 4° C. The plate was washed once with PBS-Tween and incubated at RT for 2 hours with 300 µl PBS-1% casein. The plate was washed a further three times with PBS-Tween. 100 µl of 5 ng/ml (80 pM) Flag-TNC-CD70 (The Journal of Immunology, 2009, 183: 1851-1861) diluted in PBS-0.1% casein was added to the plate and incubated at RT for 1 hour while shaking. The plate was washed five times with PBS-Tween. The CD70 mAb to be tested was added to the plate; various concentrations were achieved by diluting the stock antibody solution in PBS-0.1% casein. Immediately thereafter, 50 µl of 1 µg/ml (final concentration 6.5 nM) recombinant human CD27 Fc chimera (R&D systems 382-CD, MW = 46.5 kDa) was added, and incubated at RT for 1 hour while shaking. The plate was washed five times with PBS Tween. 100 µl of biotinylated anti-CD27 (eBioscience 13-0271), diluted 500-fold in PBS-0.1% casein, was added, and the plate incubated at RT for a further hour, while shaking. The plate was washed five times with PBS Tween. […] 100 µl TMB was added to the plate and the OD at 620 nm was measured. […]

[9] = biological target: T4, rhesus recombinant CD70 …; assay: inhibition ELISA: CD27 binding to FLAG-TNC-rhesus CD70
Text: In this assay, Flag-TNC-CD70 is captured by an anti-Flag mAb and binding of CD27-Fc is detected via a biotinylated anti-CD27 mAb and strep-HRP in the absence or presence of CD70 Fabs (FIGS. 2 and 3) or CD70 mAbs (FIG. 4). In FIG. 2B it can be seen that 27B3, which has an identical VH as 9D1, but contains a somewhat different light chain, seems to block binding of CD27 to CD70 more efficiently, which was in line with the better off rate of this Fab as measured on Biacore (data not shown). Table 3 indicates the blocking potency (expressed as IC50) for the various llama-human chimeric mAbs tested in the CD70 inhibition ELISA. […] FIG. 3 is a composite of an experiment testing llama CD70 Fabs for blocking activity (in the inhibition ELISA, see white bars) and for CD70 binding (binding ELISA, black bars). For the binding ELISA, Flag-TNC-CD70 is captured by an anti-Flag mAb and binding of the Fabs is detected using an anti-myc-HRP mAb, which recognizes the MYC tag fused to the C-terminus of the Fd fragment. For comparison purposes, known monoclonal antibodies to CD70 (SGN70 described in US 2010/0129362 A1, clone 1F6; and MDX69A7 described in WO2008/074004FIGS. 5A and 5B) were tested in parallel. […] Of interest is clone 59D10, which as Fab has no blocking activity, but when converted into a chimeric IgG was antagonistic (see Table 3). […]

B1: SGN70 mAb (antibody, INN chains, looked up, V domains shown)
VH: QVQLVQSGAEVKKPGASVKVSCKASGYTFTNYGMNWVRQAPGQGLKWMGWINTYTGEPTYADAFKGRVTMTRDTSISTAYMELSRLRSDDTAVYYCARDYGDYGMDYWGQGTTVTVSS
VL: DIVMTQSPDSLAVSLGERATINCRASKSVSTSGYSFMHWYQQKPGQPPKLLIYLASNLESGVPDRFSGSGSGTDFTLTISSLQAEDVAVYYCQHSREVPWTFGQGTKVEIK
IC50 [1]: 4.97 µg/mL
IC50 [2]: 0.178 µg/mL
IC50 [3]: 0.112 µg/mL
IC50 [4]: 0.33 µg/mL
IC50 [5]: 0.054 µg/mL
IC50 of IL-8 secretion, Raji / HT1080-CD27 co-culture [6]: 0.055 µg/mL

B2: 59D10 Fab (Fab, V domains shown)
VH: EVQLVESGGGLVQPGGSLRLSCAASELSFSISEMTWVRQAPGKGLEWVSGISGVTGGSSTSYADSVKGRFTISRDNDKNTLYLQMNSLIPEDTAVYYCATTSGTYYFIPEYEYWGQGTQVTVSS
VL: QSVLTQPPSVSGSPGKTVTISCAGTSSDVGYGYYVSWYQQFPGMAPKLLIYDVNKRASGIADRFSGSKAGNTASLTISGLQSEDEADYYCASYRSSANAVFGGGTHLTVLG
notes: Llama-derived Fab from phage display; MYC tag at C-terminus of Fd
binding result [7]: no binding

B3: ARGX-110 (non-fucosylated human IgG1 of germlined 27B3 clone 41D12) (antibody, V domains shown)
VH: EVQLVESGGGLVQPGGSLRLSCAASGFTFSVYYMNWVRQAPGKGLEWVSDINNEGGTTYYADSVKGRFTISRDNSKNSLYLQMNSLRAEDTAVYYCARDAGYSNHVPIFDSWGQGTLVTVSS
VL: QAVVTQEPSLTVSPGGTVTLTCGLKSGSVTSDNFPTWYQQTPGQAPRLLIYNTNTRHSGVPDRFSGSILGNKAALTITGAQADDEAEYFCALFISNPSVEFGGGTQLTVLG
notes: also called ARGX-100; 41D12 (ARGX-110)
IC50 [3]: 0.048 µg/mL
IC50 [8]: 0.075 µg/mL

B4: 27B3 chimeric llama-human mAb (antibody, V domains shown)
VH: B3 VH with S75A, S78T, Y80T, R87K, A88P, V93L, A97V, L117Q, T119I, S121A
VL: B3 VL with D32T, D62S, L69S, G70E, A82P, D83E, G111S
notes: also called SIMPLE antibody 27B3; mAb 27B3
IC50 [9]: 0.15 µg/mL
Raji co-culture assay IC50 relative to 27B3 [6]: 1 fold relative to 27B3
